12 molecules from patent publication US20230174655A1 (published 2023) can be followed below.

Sequences and labels used below:
T1: FcγRIIb extracellular domain with C-terminal His tag (human, UniProt P31994 43-217)
T1 construct: extracellular domain; also called FcgRIIb; FcγRIIb extracellular region
T1 sequence (looked up): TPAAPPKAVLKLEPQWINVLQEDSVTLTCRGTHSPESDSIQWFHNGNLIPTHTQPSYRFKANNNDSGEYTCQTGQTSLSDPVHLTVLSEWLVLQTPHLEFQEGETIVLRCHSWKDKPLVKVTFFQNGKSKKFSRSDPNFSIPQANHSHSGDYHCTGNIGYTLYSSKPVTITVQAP

T2: FcγRIIa type R extracellular domain with C-terminal His tag (human, UniProt P12318 34-217)
T2 construct: extracellular domain; also called FcγRIIa R; FcγRIIaR
T2 sequence (looked up): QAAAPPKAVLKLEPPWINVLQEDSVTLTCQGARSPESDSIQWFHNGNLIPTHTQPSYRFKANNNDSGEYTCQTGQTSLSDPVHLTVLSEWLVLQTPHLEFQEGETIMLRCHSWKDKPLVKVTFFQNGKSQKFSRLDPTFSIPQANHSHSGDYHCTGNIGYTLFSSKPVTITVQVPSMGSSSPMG

T3: FcγRIIa type H extracellular domain with C-terminal His tag (human, UniProt P12318 34-217)
T3 construct: extracellular domain; also called FcRIIaH; FcgRIIaH; not shown: His tag at the C terminus
T3 sequence (looked up): T2 sequence (looked up) with R134H

T4: FcγRIIa type R extracellular domain with C-terminal His tag (human, UniProt P12318 34-217)
T4 chain: T2 sequence (looked up)

T5: FcγRIIb extracellular domain with C-terminal His tag (human, UniProt P31994 43-217)
T5 construct: extracellular domain; also called FcRIIb; FcgRIIb; not shown: His tag at the C terminus
T5 sequence (looked up): T1 sequence (looked up)

B1: IL6R-PD042/IL6R-L (antibody, human IgG1, kappa)
heavy: QVQLQESGPGLVKPSETLSLTCAVSGHSISHDHAWSWVRQPPGEGLEWIGFISYSGITNYNPSLQGRVTISRDNSKNTLYLQMNSLRAEDTAVYYCARSLARTTAMDYWGEGTLVTVSSASTKGPSVFPLAPSSKSTSGGTAALGCLVKDYFPEPVTVSWNSGALTSGVHTFPAVLQSSGLYSLSSVVTVPSSSLGTQTYICNVNHKPSNTKVDKKVEPKSCDKTHTCPPCPAPEWLGGDSVFLFPPKPKDTLYISRTPEVTCVVVDVSHEDPEVKFNWYVDGVEVHNAKTKPREEQYNSTYRVVSVLTVLHQDWLNGKEYKCKVSNKALPAPIEKTISKAKGQPREPQVYTLPPSRDELTKNQVSLTCLVKGFYPSDIAVEWESNGQPENNYKTTPPVLDSDGSFFLYSKLTVDKSRWQQGNVFSCSVMHEALHYHYTQKSLSLSP
light: not shown
notes: H chain: IL6R-F11 with P238D/L234W (EU numbering); also called P238D/L234W; copies: 2 + 2
B2: IL6R-PD079/IL6R-L (antibody, human IgG1, kappa)
heavy: B1 heavy with W236L, G239A
light: not shown
notes: H chain: IL6R-F11 with P238D/G237A (EU numbering); also called P238D/G237A; copies: 2 + 2
B3: IL6R-PD095/IL6R-L (antibody, human IgG1, kappa)
heavy: B1 heavy with W236L, G239Y
light: not shown
notes: H chain: IL6R-F11 with P238D/G237Y (EU numbering); also called P238D/G237Y; copies: 2 + 2
B4: IL6R-PD082/IL6R-L (antibody, human IgG1, kappa)
heavy: B1 heavy with W236L, G239F
light: not shown
notes: H chain: IL6R-F11 with P238D/G237F (EU numbering); also called P238D/G237F; copies: 2 + 2
B5: IL6R-PD080/IL6R-L (antibody, human IgG1, kappa)
heavy: B1 heavy with W236L, G239D
light: not shown
notes: H chain: IL6R-F11 with P238D/G237D (EU numbering); also called P238D/G237D; copies: 2 + 2
B6: IL6R-PD094/IL6R-L (antibody, human IgG1, kappa)
heavy: B1 heavy with W236L, G239W
light: not shown
notes: H chain: IL6R-F11 with P238D/G237W (EU numbering); also called P238D/G237W; copies: 2 + 2
B7: IL6R-PD043/IL6R-L (antibody, human IgG1, kappa)
heavy: B1 heavy with W236Y
light: not shown
notes: H chain: IL6R-F11 with P238D/L234Y (EU numbering); also called P238D/L234Y; copies: 2 + 2
B8: IL6R-PD087/IL6R-L (antibody, human IgG1, kappa)
heavy: B1 heavy with W236L, G239M
light: not shown
notes: H chain: IL6R-F11 with P238D/G237M (EU numbering); also called P238D/G237M; copies: 2 + 2
B9: IL6R-PD081/IL6R-L (antibody, human IgG1, kappa)
heavy: B1 heavy with W236L, G239E
light: not shown
notes: H chain: IL6R-F11 with P238D/G237E (EU numbering); also called P238D/G237E; copies: 2 + 2
B10: IL6R-BF146/IL6R-L (antibody, human IgG1, kappa)
heavy: B1 heavy with W236Y, G239D, Y254M, K328A, Y436N, K441E
light: not shown
notes: alteration printed: L234Y/G237D/P238D/K326A; copies: 2 + 2
B11: IL6R-2B253/IL6R-L (antibody, human IgG1, kappa)
heavy: B1 heavy with E235D, W236L, Y254M, V325M, Y436N, K441E
light: not shown
notes: alteration printed: B233D/P238D/V323M; copies: 2 + 2
B12: IL6R-BF201/IL6R-L (antibody, human IgG1, kappa)
heavy: B1 heavy with E235D, W236L, G239D, Y254M, P273G, A332R, Y436N, K441E
light: not shown
notes: alteration printed: E233D/G237D/P238D/P271G/A330R; copies: 2 + 2

Changes are numbered by the printed parent chain. Numbers in names are those of the source.

T6 sequence (P08637 17-208 F176V): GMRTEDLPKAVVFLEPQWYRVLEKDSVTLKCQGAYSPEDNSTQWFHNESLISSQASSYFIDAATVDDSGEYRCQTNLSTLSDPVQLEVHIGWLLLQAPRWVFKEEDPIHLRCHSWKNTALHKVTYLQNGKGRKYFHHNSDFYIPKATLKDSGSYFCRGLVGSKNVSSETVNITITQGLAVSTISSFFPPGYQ

In the first assay the target is T1, FcγRIIb extracellular domain with …. Put plainly: SPR (Biacore), Reference Example 2. From the text:
(§1) Furthermore, KD(IIaR)/KD(IIb) and KD(IIaH)/KD(IIb) in the table respectively show the value obtained by dividing the KD value of each variant for FcγRIIaR by the KD value of each variant for FcγRIIb, and the value obtained by dividing the KD value of each variant for FcγRIIaH by the KD value of each variant for FcγRIIb. KD(IIb) of the parent polypeptide/KD(IIb) of the altered polypeptide refers to a value obtained by dividing the KD value of the parent polypeptide for FcγRIIb by the KD value of each variant for FcγRIIb.
(§2) Kinetic analyses for calculating the KD values of each altered antibody for FcγR were performed according to the following method. First, antibodies of interest were captured onto the above-mentioned sensor chips, and an Fcγ receptor diluted with the running buffer was allowed to interact. The Biacore™ Evaluation Software was used to globally fit the measured results to the obtained sensorgram using the 1:1 Langmuir binding model, and the association rate constant ka (L/mol/s) and the dissociation rate constant kd (1/s) were calculated; and from those values the dissociation constants KD (mol/L) were calculated.
In turn, B1 showed a Kd of 20 µM.

Another assay concerns the target T2, FcγRIIa type R extracellular domain …. As to the kind of experiment: SPR (Biacore), Reference Example 2.
Source text: as §1, §2
Regarding B2, the affinity, expressed as Kd, was 32 µM. The molecule B1 gave a Kd of 16 µM. The same measure, in the same setting: under B3 stands 7.9 µM; under B4, 14 µM; under B5, 21 µM. Still for that read-out and setting: then B6, with 7.2 µM; and B7, with 26 µM. The same measure, in the same setting: under B8 stands 22 µM; under B9, 38 µM.

For a further assay, the target named is T3, FcγRIIa type H extracellular domain …. As to the kind of experiment: SPR (Biacore), antibody captured, FcgR analyte.
Source text: as §1, with “In the table, SEQ ID NO refers to the SEQ ID NO of the H chain of the evaluated variant, and alteration refers to the alteration introduced into IL6R-B3 (SEQ ID NO: 40). […] Furthermore,” for “Furthermore,”, “respectively represent” for “respectively show”, “to the” for “to a”
as §2
B10 had a Kd of 10 µM.

The target in the next assay is T4, FcγRIIa type R extracellular domain …. Put plainly: SPR (Biacore), antibody captured, FcgR analyte.
Source text: as §1, with “In the table, SEQ ID NO refers to the SEQ ID NO of the H chain of the evaluated variant, and alteration refers to the alteration introduced into IL6R-B3 (SEQ ID NO: 40). […] Furthermore,” for “Furthermore,”, “respectively represent” for “respectively show”, “to the” for “to a”
as §2
Regarding B11, binding was put at a Kd of 0.05 µM. As to B12, the Kd was 0.84 µM.

Another assay concerns the target T6, FcγRIIIa type V extracellular domain with C-terminal His tag (human, UniProt P08637 17-208).
T6 construct: extracellular domain; also called FcIIIaV; FcgRIIIaV; not shown: His tag at the C terminus
Put plainly: SPR (Biacore), antibody captured, FcgR analyte.
Source text: as §1, with “In the table, SEQ ID NO refers to the SEQ ID NO of the H chain of the evaluated variant, and alteration refers to the alteration introduced into IL6R-B3 (SEQ ID NO: 40). […] Furthermore,” for “Furthermore,”, “respectively represent” for “respectively show”, “to the” for “to a”
as §2
The molecule B11 came in with a Kd of 5 µM.

Another assay has as its target T5, FcγRIIb extracellular domain with …. As to the kind of experiment: SPR (Biacore), antibody captured, FcgR analyte.
Source text: as §1, with “In the table, SEQ ID NO refers to the SEQ ID NO of the H chain of the evaluated variant, and alteration refers to the alteration introduced into IL6R-B3 (SEQ ID NO: 40). […] Furthermore,” for “Furthermore,”, “respectively represent” for “respectively show”, “to the” for “to a”
as §2
On to B12, for which binding was put at a Kd of 40 µM.
